# Data reported in the supplement of paper PMC9170038.
# Key:
# MS2 coat protein [1] = assay: apparent KD of MS2 coat protein, switch OFF state (with FMN for OFF switches, without FMN for ON switches); designed switch direction (-1 OFF switch, 1 ON switch): -1; higher = weaker reporter binding; settings: FMN input: 0 or 200 uM; Eterna round: R93 (includes R88 designs)
# In short: (§1)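 Values are apparent KD, taken as the median for each design of fits to normalised binding curves from individual clusters. The designed RNA switches were transcribed on-chip from Illumina sequencing clusters and exposed to SNAP-549-labelled MS2 coat protein at twofold increasing amounts from 0.7 or 1.5 nM to 3 µM. Titration used 100 mM Tris-HCl pH 7.5, 80 mM KCl and 4 mM MgCl2, without or with constant ligand.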
# MS2 coat protein [2] = assay: apparent KD of MS2 coat protein, switch ON state; designed switch direction (-1 OFF switch, 1 ON switch): -1; higher = weaker reporter binding; settings: FMN input: 0 or 200 uM; Eterna round: R93 (includes R88 designs)
# In short: as §1
Sequence,apparent KD of MS2 coat protein (MS2 coat protein [1]),apparent KD of MS2 coat protein (MS2 coat protein [2])
GAUCCACAUGAGGAUCACCCAUGUAAGGAUAUUUAAAACCGGAGACAACCCUCCGAAGAAAGAAGGUACAAAAC [Ququraes],12.6 nM,13 nM
GGAAAACAUGAGGAUCACCCAUGUAAGGAUAUGCAAAAAAAGGAUAUAGAAGGAAAAAGCAGAAGGUACAAAGG [salish99-ex1-24],55.5 nM,30.6 nM
GGAAAACAUGAGGAUCACCCAUGUCAGGAUAUACAAAGAAAGAAAGAAAAGAAAGAAAGUAGAAGGGACUAAAG [Amethyst 16],37.9 nM,20.4 nM
GGAAAACAUGAGGAUCACCCAUGUGAGGAUAUCGAUGUCCAAUAAAAAGUGCGGGACUCGAGAAGGCACUUGGA [salish99-ex1-41],29.2 nM,36.2 nM
GGAAAGCGAGGAUAUACAUGAGGAUCACCCAUGUAAACAAACAAACAAACAAACAAAUGUAGAAGGCGCAAAAC [Exclusion 3 Strange],50.6 nM,49 nM
GGAGUGCAAGGAUAUACAUGAGGAUCACCCAUGUGAGAGAAAAAAGUGAGAAAGAAAAGUAGAAGGUGCGUUCG [salish99-ex3-131],44.8 nM,29.2 nM
GGGUACGCAGGAUAUACAUGAAAAAAAAAAAAAAAAAAAAAACAUGAGGAUCACCCAUGUAGAAGGGCGUAUCC [hsl_exclusion2],314 nM,92.5 nM
GGGUCACAUGAGGAUCACCCAUGUAAGGAUAUGCUAGGGAUGGAAGCCAGGCCAAAAAGCAGAAGGUACUAAAG [Janelle Amethyst 18 Mod 15 - Jieux - Exclusion 1],85.8 nM,41.2 nM
GGUUGAAUAGGAUAUACAUGAGGAUCACCCAUGUGAGAGAAAAAAGUGAGAAAGAAAAGUAGAAGGAUUUGACG [salish99-ex3-61],65.1 nM,34.7 nM
GGUUGGCGAGGAUAUACAUGAGGAUCACCCAUGUGAGAGAAAAAAGUGAGAAAGAAUAGUAGAAGGCGCUGACG [salish99-ex3-40],255 nM,42.5 nM
GGUUGGCGAGGAUAUACAUGAGGAUCACCCAUGUGAGAGAAAAAAGUGAGAAAGAUAAGUAGAAGGCGCUGACG [salish99-ex3-39],169 nM,80.3 nM
GGUUGGCGAGGAUAUACAUGAGGAUCACCCAUGUGAGAGAAAAAAGUGAGAUAGAAAAGUAGAAGGCGCUGACG [salish99-ex3-34],286 nM,58.8 nM
GGUUGGCGAGGAUAUACAUGAGGAUCACCCAUGUGAGAGAAAAAAGUGAGGAAGAAAAGUAGAAGGCGCUGACG [salish99-ex3-14],636 nM,32 nM
GGUUGUGAAGGAUAUACAUGAGGAUCACCCAUGUGAGAGAAAAAAGUGAGAAAGAAAAGUAGAAGGUCGUGACG [salish99-ex3-73],40.2 nM,34.7 nM
GUAAACCUAGGAUAUACAUGAGGAUCACCCAUGUAAAAUUUCAUAAAAAGAAAAUCAAGUAGAAGGAGGUAGAU [JR_Exc003_Sub1223],24.8 nM,17.3 nM
GUGUACAGAGGAUAUACAUGAGCUAGGAAACUAGCAAGAUCACAUGAGGAUCACCCAUGUAGAAGGCUGUACAC [Ex2: 734],16.3 nM,70 nM
GUUGUGCGAGGAUAUAUGUGAGGUUUGCCUCAACAGGUAAUACAUGAGGAUCACCCAUGUAGAAGGCGCAUGAG [S1-(23.6);S2-(22.1) [87C]],342 nM,67.3 nM
"UAAAAACAUGAGGAUCACCCAUGUGAGGAUAUCGAAAAAAAAAAAUUAAAAAAGGAAGCGAGAAGGUACGGGAU [close, no cigar]",33.2 nM,33.3 nM
UAAAGACAUGAGGAUCACCCAUGUGAGGAUAUCGGAGAUAACAGAACAUCAAGUUCAGCGAGAAGGCACAGAAA [JR_Exc001_Sub402],72 nM,47.2 nM
UAAAGACAUGAGGAUCACCCAUGUGAGGAUAUCGGAGGUGACGGAACAUCGAGUUCGGCGAGAAGGCGCAGGAA [JR_Exc001_Sub408],49 nM,69.6 nM
